Experimental data from the nanobody polyreactivity screen of Harvey et al. (2022).

assay: yeast display, Sf9 membrane polyspecificity reagent, FACS + sequencing; frameworks hold sequencing errors
How it was run: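 Polyreactivity labels are assigned by the sorting gate from which each nanobody was recovered. The gates were low and high (top ~1%), set on anti-HA fluorescence for expression and streptavidin fluorescence for reagent binding. Before sorting, galactose-induced (36–48 hours) yeast display cells were stained for 1 hour at 4 °C with 10% biotinylated, detergent-solubilized Sf9 membrane reagent.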

Sequence | polyreactivity (PSR sort gate)
QVQLVESGGGLVQAGGSLRLSCAASGSTFYSYAMGWYRQAPGKEREMVAAITRGGSTNYADSVKGRFTISRDNAKNTVYLQMNSLKPDDTAVYYCAKSKYTGTAFGGKKTWFNYWGQGTQVTVSS | high polyreactivity
QVQLVESGGGLVQAGGSLRLICAASGIIFGGYDMGWYRQAPGKERELVAGIRSGGSTYYADSVKGRFTISRDNAKNTVYLQMNSLKPEDTAVYYCAKYVPIPYYSYLFGSYDYWGQGTQVTVSS | low polyreactivity
QLQIVESGGGLVQAGGSLRISCAASVFTFCKYAMGWYRPAPGKERELVAAISVSGGRTYSADSVKGRFTISRDNAKNTVYLQMNSLKPEDTEVYYCNATQWRPYVGGEYWGQGTQVTVSS | high polyreactivity
QVQLVESGGGLVQAGGSLRLSCAASGRIFHRYAMGWYRQAPGKEREFVAAISSRGGSTYYADSLKGRFTISRDTAKNTVDFQINSLKPEETAVYYCAAQIGYRSGEFYYWGQGTQVTVSS | high polyreactivity
QVQLVESGGGLVQAGGSLRLSCAASGSIFGSYTMGWYRQAPGKERELVAAITSSGGGTYYADSVKGRFTISRDNAKNTVYLQMNSLKPEDTAVYYCAAEYRDGYRFSYDYWGQGTQVTVSS | low polyreactivity
QVQLVESGGGLVQAGGSLRLSCAASGRTFRTYTMGWYRQAPGKEREFGAAITSSGASTYYADSVKGRFTISRDNAKNTVYLPMNSLKPEETAVYYCAARYGRRLVWVPALLYDYWGQGTQVTVSS | high polyreactivity
QVQLVESGGGLVQAGGSLRLSCAASGSILYTYAMGWYRQAPGKERELVAAISRGGGSTYYADSVKGRFTISRDNAKNTVYLQMNSLKPEDTAVYYCAARKLTRGTGRDDEYWGQGTQVTVSS | high polyreactivity
QVHLVESGGGLVQAGGSLRLSCAASGFTFSSNAMGWYRQAPGKERELVADISFNSTSTYYADSVKGRFTISRDNAKNTVYLQMNSLKPEDTAVYYCAADVPRVQSEPEYDYWGQGTQVTVSS | low polyreactivity
QVQLVESGGGLVQAGGSLRLSCAASGRIFRAYAMGWYRQAPGKERELVAAITSGVSTNYADSVKGRFTISRDNAKNTVYLQMNSLKPEDTAVYYCAADIYVIYEYWGQGTQVTVSS | low polyreactivity
QVQLVESGGGIVQEGGSLRLSCAASGRTFNRYAMGWYRQAPGKERELVAAISWSGGRTYYADSVKGRFTISRDNAKNTVYLQMNSLIPEGTAVYYCAKEAYIRYDYWGQGTQVTVSS | low polyreactivity
QVQLVESGGGLVQAGGSLRLSCAASGFIFAEYAMGWYRQAPGKDRELVAAITSGGSTSYADSVKGRFTISRDNAKNTVYLQMNSLKPEDTAVYYCAATWYYHYNDWKHWYEYGYWGQGTQVTVSS | low polyreactivity
QVQLVESGGGLVQAGGSLRLSCAASGFIFVDYDMVWYRQAPGKERELVAAISARGGSTNYADSVKGRFTISRDNAKNTVYLQMNSLKPEDTAVYYCAADTPVWSGYWYDYWGQGTQVTVSS | low polyreactivity
QVQLVESGGGLVQAGGSLRLSCAASGRIFCGYMGWYRQAPGKEREFVAAISVRGGGTYYADSVKGRFTISRDNAKNTVYLQMNSLKPEDTAVDYCNTRGGWPYDYWGQGTQVTVSS | low polyreactivity
QVQLQESGGGLVQAGGSPRLSCAASDNIFPDSVMCWSRQAPGKERELVATIGFGATTNYADSVKGRFTISRDNAKNTVYLQMNSLKPEDTAVYYCAADPLNYEYFCYWGQGTQVTVSS | low polyreactivity
QVQLVESGGCLVQAGGSLRLSCAASGSTFTINVMGWYRQAPGKERELVAAINGGGRTNYADSVKGRFTISRDNAKNTVYLQMNSLKPEDTAVYYCAADGLSNVRQMDYWGQGTQVTVSS | low polyreactivity
QVQLVESGGVLLQAGASLRLSCAASGSIIRSYAMGWYRQAPGKERELVASISRRGGSTYYADSVKGRFTISRDNPKNSVFLQMNSLNPVDTADYYCGAVTTSKFNFWGQGTQVTVSS | low polyreactivity
QVQLVESGGGLVQAGGSLRLSCAASGYTFQTNTMGWYRQAPGKERELVAAITDGDSTNYADSVKGRFTISRDNAKNTVYLQMNSLKPEDTAVYYCAAQYYYSEAGMDYWGQGTQVTVSS | low polyreactivity
QVQLVESGGGLVQAGGSLRLSCAASGYTFSLNAMGWYRQAPGKERELVAAISGRTGRTYYADSVKGRFTISRDNAKNTVYLQMNSLKPEDTAVYYGNKVYPYQRRTRFDYWGQGTQVTVSS | high polyreactivity
QVQLVESGGGLVQAGGSLRLSCAASGRTFAQYAMGWYRQAPGKERELVAGISRSGGSTYYADCVKGRFTISRDNAKNTVYLQMNSLKPEDTAVYYCAARWRGARWYYYWGQGTQVTVSS | high polyreactivity
QVQLVESGGGLVQAGGSLRLSCAASGFTFDQYAMGRNRQAPGKERELVAVISSGGSTYYADSVKGRFTFSRDNAKNTVYLQMNSLKQEDTAVYYCNRDRQRRYDYWGQGTQVTLSS | high polyreactivity
QVQLVESGGGLVQAGGSLRLSCAASGLTFFGYTMGWYREAPGKEREFVADITWSGGSTYYADSVKGRFTISRDNAKNTVYLQMNSLKPEDTAVYYCSVAPPNWDPFVDDTYLMDYWGQGTQVTVSS | low polyreactivity

Sequence | polyreactivity (PSR sort gate)
QVQLVESGGGLVQAGGSLRLSCAASGIIFGFNTMGWYRQAPGKERELVAAINGSDGSTYADSVKGRFTISRDNAKNTVYLLMNSLKPEDTAVYYCAARYGSRKEYTYADMDYWGQGTQVTVSS | low polyreactivity
QFQLVESGGGLVQAGGSLRLSCAASGRTFYVNAMGWYRPSPGKERELVAGISFSDGSTYYADSVKGRFTISRDNAKNTVYLQMNSLKPEDTAVYYCATVGAFDIYYGYGYWGQGTQVTVSS | low polyreactivity
QVQLVESGGGLVQAGGSLRLSCAASGYIFGVYAMGWYRQAPGKERELVAAISIGGSTYYADSVKGPFTISRDNAKNTVYLQMNSLKPEDTAVYYCAARGWIRKTSSAYGYWGQGTQVTVSS | high polyreactivity
QVQLVESGGGLVQAGGSLRLSCAASGRTFYKYAKGWYRQAPGKERELVAAISWSGGSTYYADSVKGRFTISRDNAKNTVYLLMKSLKPEDTAVYYSNRASYPFVKPRYECWGQGTQVTVSS | high polyreactivity
QVQLVESGGGFVQAGGSLRLTCAASALTFQYNAMGWYRQAPGKETELVAAISRSGGRTYYADSVKGRFTISRDNAKNTVYLQMNSLKPEDTAVYYCARRGGVVYSSGYNYLGQGTQVTVSS | high polyreactivity
QVQLVESGGGLVQAGGSLRLSCAASGSIFTYYAMGWYRQAPGKEMELVAAISWSGGSTYYADSVKGRFTISRDNAKNTVYLQLNSLKPEDTAVYYCAKRYRKGRAYPGYEYWGQGTQVTVSS | low polyreactivity
QVQLVESGGGLVQAGGSLRLSCAASGSTFAQNTMGWYRQAPGKERELVATISDGGGSTYYADSVKGRFTISRDIAKNTVYLQMNSLKPEDTAVYYCNTDRFWPSDYWGQGTQVTVSS | low polyreactivity
QVQLVESGGGLVQAGGSLRLSCAASGSTFLYYAMGWYRQAPGKERELVAAIDSGGSTYYADSVKGRFTISRDNAKNTVYLQMNSLKPEDTAVYYCNADFADHWPPNGPGALDYWGQGTQVTVSS | low polyreactivity
QLQLEESGGGLVQAGASLPLSCAASGLTFVEYAMGCYRQAPGKEREFVAAIRSRGGSTYYADSVKGRFTISRDNAKTTVYLQMNSLKPEDTAVYYCNADGYFWGQGTQVTVSS | low polyreactivity
QVQLVESGGGLVQAGGSLRLRCAASGRTFSHYAMGWYRQAAGKESELVATITRNGGITYYADSVKGRFTISRDNAKNTVYLQMNSLKPEDTAVYYCNKRWGGPIQFDYWGQGTQVTVSS | low polyreactivity
QVQLVESGGGLVQAGGSLRLSCAASGNTLDAYTMGWYRQAPGKERELVAAISRGGTRTYYADSVKGRFTISRDNAKNTVYLQMNSLKPEDTAVYYCNKQFPYSKYYIMGYWGQGTQVTVSS | high polyreactivity
QVQLEESGGGLVQAGGSLRLSCAASGSTFYVYAMGWYIQAPGKERELVAAITDSGGSTYADSVKGRFTISRDNAKNTVYLQMNSLKPEDTAVYADSTYTWYYYYWGQGTQVTVSS | low polyreactivity
QVQLVESGGGLVQAGGSLRLICAASGSIFIGNTMGWYRQAPGKERELVATIRRSGSRTYYADSVKGRFTISRDNAKNTVYLQMNSLKPEDPAVYYCNAEGVGRYSPVSHTFDYWGQGTQVTLSS | low polyreactivity
QVQLVESGGGLVQAGGSLRLSCAASGSTFFLYAMGWYRQAPGKERELVAAITYTDGDTYYADSVKGRFTISRDNAKNTVYLQMNSLKPEDTAVYYCAAYRFPYFPSIAYYYTYYSWGQGTQVTVSS | low polyreactivity
QVQLVESGGGLVQAGGSLRLSCAASGGIFRGYTMGWYRQAPGKERELVAAISKGGGSTYYADSVKGRFTISRDIAKNTVYLQMNSLKPEDTAVYYCAARHVYPLLDYWGQGTQVTVSS | high polyreactivity
QVQLVESGGGLVQAGGSLRLSCAASGRIFGVNAMGWYRPSPGKERELVADISSGGSTNYADSVKGRFTISRDNAKNTVYLQMNSLKPEDTAVYYCNARFRFRYKFPSRNSWGQGTQVTVSS | high polyreactivity
QVHLVESGGGLVQAAGSLRLSCAASGRTFNPNAIGWYRQAPGKERELVAVINVGGRTNYADSVKGRFTISRDNAKNTVYLQMNSLKPEDSAVYYCAAISSRNFDYWGQGTQVTVSS | high polyreactivity
QVQLVESGGGLVQAGGSLRLSCAASGRIFWGYAMGWSRQAPGKERELVAGITYSGGSTYYADSVKGRFTISRDNAKNTVYLQMNSLKPEDTAVYYCAAAKSYRSGSWYEYWGQGTEVTVSS | high polyreactivity
QVQLVESGGGLVQAGGSLRLSCAASGRIFVVNDMGWYRQAPGKERELVAAMNSGGRTNYADSVKGRFTISRDNAKNTVYLQMPSLKPEDTAVYYCNAKRTGPWFLHVPVYYWGQGTQVTVSS | low polyreactivity
QVQLVESGGGLVQAGGSLRLSCAASGFIFQPYAMGWYRQAPGKERELVAAITSRGGRTYYADSVQGRFTICRDNAKNTVYLQMNSLKPEDTSVYYCNADIYASEYYYWGQGTQVTVSS | low polyreactivity
